Measured values: PMC5723990, “Calmodulin regulates Cav3 T-type channels at their gating brake” (The Journal of Biological Chemistry, 2017)
Where two headings read alike, the source gives them in different places. No end group written: not given here.

Legend:
[1] = molecular target: calmodulin (CaM), wild type, bacterially expressed (rat) (UniProt P0DP29); test: ITC; 10 mM HEPES pH 7.0, 0.1 mM CaCl2 (results: 0.5 mM CaCl2), 25 °C, one-set-of-sites model, mean of three replicates
[2] = molecular target: CaM_(1234), CaM with all four Ca^2+-binding sites mutated (human) (UniProt P0DP23); test: as above
[3] = molecular target: calmodulin (CaM), wild type, bacterially expressed (rat) (UniProt P0DP29); test: native gel or EMSA; gel-mobility shift of CaM with 0.5–4× molar ratios of peptide; native gels with 4 M urea, 0.1 mM CaCl2 in running buffer; incubation ≥1 h at 4 °C in 150 mM NaCl, 50 mM Tris-Cl pH 7.5, 1 mM CaCl2
[4] = molecular target: calmodulin (CaM), wild type, bacterially expressed (rat) (UniProt P0DP29); test: ITC; 10 mM HEPES pH 7.0, 0.1 mM CaCl2 (results: 0.5 mM CaCl2), 25 °C, one-set-of-sites model, mean of three replicates; remark: listed apart in the source
[5] = Aggregation of peptides in buffers; format: physicochemical; details: observation during CD (PBS: 10 mM sodium phosphate pH 7.3, 137 mM NaCl) and ITC sample preparation
Description: CD measurements were performed using a Jasco-715 spectropolarimeter (Jasco Instruments, Easton, MD), using the following parameters: 250–190-nm range, 50 nm/min speed, with 1-s response time, 1-nm bandwidth, and 100-millidegree sensitivity at room temperature. 16–25 accumulations were gathered depending on signal quality. Recordings were made in a 1-mm cuvette, in 10 mM sodium phosphate buffer with 0.1 mM added CaCl2, and used as baseline, which was subtracted from each recording. For CaM and CaMB peptide spectra, the same solution of 10 μM CaM was scanned before stock (1 mM) peptide was added in incremental amounts before being scanned again. The resulting spectra were subtracted (e.g. CaM and CaMB peptide-CaM alone) to extract the spectrum corresponding to the change associated with adding the peptide. Every recording was an average of at least 16 accumulations and subsequently corrected for protein concentration (converted to units of mean residue ellipticity). These were smoothed and exported into ASCII format for analysis with Excel and either SOMCD or Dichroweb K2d algorithm (http://dichroweb.cryst.bbk.ac.uk)^6 ([92], [93]). […]
(§1) Heat gain or heat requirements in the sample cell (for exothermic binding or endothermic binding, respectively) correspond to the direction of the injection peaks measured in the isothermal titration calorimeter (MicroCal iTC200, Malvern Instruments, UK). […]

Ca^2+–CaM = test: Gel mobility-shift assay with CaM; format: binding, rat; details: molar ratio of CaMB peptide to CaM for saturating gel-mobility shift; native PAGE, 0.1 mM CaCl2, ratios 0.5–4×, incubated ≥1 h at 4 °C; three replicate experiments
Description: (§2) We followed protocols that we have described previously in an analysis of CaM binding with snail or human L-type calcium channel peptides in the presence of 0.1 or 0.5 mM CaCl2-containing solution ([9]).
(§3) Rat CaM was purified using phenyl-Sepharose 6 Fast-Flow (High Sub) (GE Healthcare), packed to ∼10 ml volume, by gravity flow at 4 °C. Codon-optimized CaM was cloned in pET9d, a T7 Escherichia coli expression vector. CaM was transformed into BL21 DE3 E. coli and grown at 37 °C and 200 rpm to OD of 0.4–0.6 (for Luria Broth, LB) or 0.5–0.9 (for SuperBroth, SB), at which point samples were induced by 1 mM added isopropyl β-D-1-thiogalactopyranoside and grown for another 4 (for SB) to 6 (for LB) h. Robust expression of soluble CaM was confirmed by SDS-PAGE. Cells were collected by centrifugation at ∼4000 × g, then lysed in high-salt buffer (0.1 M Tris-Cl, pH 7.5, 0.5 M NaCl, 0.5 M ammonium sulfate, 1 mM DTT) using an Avestin Emulsiflex homogenizer at 15,000–20,000 p.s.i. with jacketed water cooling, through which the cells were passed ∼3× on average. The cell lysate was clarified by centrifugation at 20,000 rpm in an SS-34 rotor (∼50,000 × g) at 4 °C for 30 min. To the cleared lysate, CaCl2 was added to a final concentration of 10 mM. The lysate was then applied to the gravity phenyl-Sepharose column equilibrated with the same high salt buffer (and 1 mM CaCl2). […]

[6] = molecular target: T1, Ca^2+–CaM (wild-type calmodulin) (Rattus norvegicus, UniProt P0DP29); test: Isothermal titration calorimetry of CaMB peptides with wild-type CaM; details: ITC, one-set-of-sites fit, 25 °C, 10 mM HEPES pH 7.0, 0.1 mM CaCl2 (b23 says 0.5 mM CaCl2), mean of n = 3 (Fig. 6A), read-out: Binding affinity (Ka)
T1 construct: His tag; made in house; host or cells: E. coli BL21 DE3 (pET9d)
Description: as §2
as §3, with “average.” for “average. The cell lysate was clarified by centrifugation at 20,000 rpm in an SS-34 rotor (∼50,000 × g) at 4 °C for 30 min. To the cleared lysate, CaCl2 was added to a final concentration of 10 mM. The lysate was then applied to the gravity phenyl-Sepharose column equilibrated with the same high salt buffer (and 1 mM CaCl2).”
as §1

[7] = molecular target: T2, C-CaM (C-lobe of CaM, 74-aa construct) (Homo sapiens, UniProt P0DP23); test: Isothermal titration calorimetry with C-lobe of CaM; details: ITC, one-set-of-sites fit, 25 °C, 10 mM HEPES pH 7.0, 0.1 mM CaCl2, mean of n = 3 (Fig. 6A), read-out: Binding affinity (Ka)
T2 construct: partial CaMs: N-CaM(1–74), C-CaM(75–148); His tag; made in house; host or cells: bacteria (E. coli)
Description: (§4) We have used human CaM and associated CaM mutants that we have described before ([9]), CaM(1–44) and partial CaMs: N-CaM(1–74), C-CaM(75–148), and CaMs that simulate CaM binding in the absence of calcium, by substitution of glutamate residues in the two calcium-binding sites in the N-terminal lobe (CaM12) or C-terminal lobe (CaM34), or mutation of all four calcium-binding sites (CaM1234) of CaM. CaM–GFP used for Western blotting is a construct consisting of GFP fused to the C terminus of CaM expressed in pcDNA3.1 (Cell Signaling Technology) ([83]). EGFP expression vector was obtained by subcloning EGFP from pEGFP-C1 (BD Biosciences) into the multiple cloning site of pcDNA3.1. The CaM1234 overexpression construct contained bicistronic marker mRFP (to generate a red color) ([46]) to distinguish from the channel expression with bicistronic EGFP (to generate a green color). The CaM1234 overexpression construct also containing CaM shRNA knockdown includes two short hairpin sequences described above to knock down CaM (Calm1,2,3 genes) ([46][–][48]). […]
as §1

[8] = molecular target: T3, N-CaM (N-lobe of CaM, 74-aa construct) (Homo sapiens, UniProt P0DP23); test: Isothermal titration calorimetry with N-lobe of CaM; details: ITC, one-set-of-sites fit, 25 °C, 10 mM HEPES pH 7.0, 0.1 mM CaCl2, mean of n = 3 (Fig. 6A), read-out: Binding affinity (Ka)
T3 construct: partial CaMs: N-CaM(1–74), C-CaM(75–148); His tag; made in house; host or cells: bacteria (E. coli)
Description: as §4, §1

[9] = molecular target: C-CaM(75–148), C-terminal lobe of CaM (human) (UniProt P0DP23); test: ITC; 10 mM HEPES pH 7.0, 0.1 mM CaCl2 (results: 0.5 mM CaCl2), 25 °C, one-set-of-sites model, mean of three replicates

snail LCav3 CaMB peptide (26-mer gating brake peptide)
stoichiometry N [1]: 1 | fold reduced affinity compared with wild-type CaM [2]: 349 fold | CaMB peptide to CaM ratio required for a saturating gel-mobility shift (× (peptide to CaM ratio)) [3]: 1 | Kd [4]: 10 nM

human Cav3.3 CaMB peptide (26-mer gating brake peptide)
Kd [1]: 383 nM | stoichiometry N [1]: 1 | CaMB peptide to CaM ratio required for a saturating gel-mobility shift (× (peptide to CaM ratio)) [3]: > 4

YEEIFQYVCHILRKAKRRALGLYQAL [Cav3.3]
aggregation [5]: severe aggregation issues in PBS | [CaMB Peptide] for Complete shift (Ca^2+–CaM): > 4.0 x

YEELLKYVGHIFRKVKRRSLRLYARW [Cav3.2]
Kd [6]: 187 nM | Kd [7]: 691 nM | Kd [8]: 31.1 nM

human Cav3.2 CaMB peptide (26-mer gating brake peptide)
stoichiometry N [1]: 1 | Kd [9]: 690 nM | CaMB peptide to CaM ratio required for a saturating gel-mobility shift (× (peptide to CaM ratio)) [3]: 1.5 | Kd [4]: 196 nM

YEELLKYLVYILRKAARRLAQVSRAA [Cav3.1]
aggregation [5]: severe aggregation issues in PBS | [CaMB Peptide] for Complete shift (Ca^2+–CaM): 1.5 x

human Cav3.1 CaMB peptide (26-mer gating brake peptide)
Kd [1]: 42.7 nM | stoichiometry N [1]: 1 | Kd [2]: 543 nM | CaMB peptide to CaM ratio required for a saturating gel-mobility shift (× (peptide to CaM ratio)) [3]: 1.5 | Kd [4]: 36 nM

YSELLKLVAQVYRRVKRKVIKTYYKT [LCav3]
Kd [6]: 12.4 nM
